Biological target: the molecule itself
Test: SEC; Superdex 200 10/300 in buffer G (20 mM Tris-HCl pH 7.5, 100 mM NaCl, 2 mM DTT); molecular weight from a calibration curve (Gel Filtration Calibration Kits HMW and LMW); peak at approximately 90 KDa against about 44 KDa on SDS-PAGE

B1: Cbs2 from Saccharomyces cerevisiae (natural protein, S. cerevisiae, UniProt P14905 1-389, looked up)
chain: MSSSIPRVYSLGNSAMTYLLALRIAQLPSQPKVPSVVLLLNDQKKLNRFLNNDSKIIVKSSNNNKETYHRQFMASCVPPILSNGEIAPIENLIVSDPSSKFITAQLSKYNKSLRPETNILFLNPSLNLLEHLHRYRWRFDEARPNLFMGFTTPVDVGTIHQEFQLSLKVKGRIQFHIAKIDGFPRMSSTGKSASLSLRGDRQKNEKENNAFYKLFREISRLRSGIGSDLVSFDLHVHGFQDLFFTELEKLILESCTEPLLAVYDCVYKKELLKIPGAQDIIKKLISEQLSIIDRSYPSLNTNPNYSVIFDKERIFSLVMRDLEVNGHKRAKLAQSLNQLNQTNINELNGFFVSLGKYKKCNCKWNDILLTLIKGKQFITKQKALDYHYL
notes: 389 amino acids; The selenomethionine derivative (Se-Cbs2) was used only for crystallization; also called recombinant Cbs2; Cbs2-His tag; source: E. coli C43 (DE3), purified (Ni-NTA, Hitrap Q anion exchange, Superdex 200 gel filtration)
  stoichiometry N: 2

Reference: article PMC7896505, “Expression, purification, crystallization and preliminary X-ray crystallographic studies of a mitochondrial membrane-associated protein Cbs2 from Saccharomyces cerevisiae” (PeerJ, 2021)
